Tests used:
D34SR-Fc = molecular target: T1, D34SR-Fc (human, UniProt Q8NHL6); experiment: ELISA on LILRB1 domain-Fc fusion proteins
T1 construct: D3-D4 and stalk region

D3-Fc = molecular target: T2, D3-Fc (human, UniProt Q8NHL6); experiment: ELISA on LILRB1 domain-Fc fusion proteins
T2 construct: D3 domain; also called LILRB1 D3-Fc

D2-Fc = molecular target: T3, D2-Fc (human, UniProt Q8NHL6); experiment: ELISA on LILRB1 domain-Fc fusion proteins
T3 construct: D2 domain; also called LILRB1 D2-Fc

D4SR-Fc = molecular target: T4, D4SR-Fc (human, UniProt Q8NHL6); experiment: ELISA on LILRB1 domain-Fc fusion proteins
T4 construct: D4 and stalk region

D1-Fc = molecular target: T5, D1-Fc (human, UniProt Q8NHL6); experiment: ELISA on LILRB1 domain-Fc fusion proteins
T5 construct: D1 domain; also called LILRB1 D1-Fc

D234SR-Fc = molecular target: T6, D234SR-Fc (human, UniProt Q8NHL6); experiment: ELISA on LILRB1 domain-Fc fusion proteins
T6 construct: D2-D4 and stalk region

SR-Fc = molecular target: T7, SR-Fc (human, UniProt Q8NHL6); experiment: ELISA on LILRB1 domain-Fc fusion proteins
T7 construct: stalk region

D23-Fc = molecular target: T8, D23-Fc (human, UniProt Q8NHL6); experiment: ELISA on LILRB1 domain-Fc fusion proteins
T8 construct: D2-D3

LILRB4 on reporter cells = molecular target: T9, LILRB4 on reporter cells (UniProt Q8NHJ6 22-448); experiment: flow cytometry on LILR reporter cells, 0.5 µg/mL rabbit B1-176, anti-rabbit IgG PE
T9 construct: whole, on cells

LILRA1 on reporter cells [1] = molecular target: T10, LILRA1 on reporter cells (UniProt O75019 17-489, limits assumed); experiment: as above
T10 construct: whole, on cells

LILRB3 on reporter cells = molecular target: T11, LILRB3 on reporter cells (UniProt O75022 24-631, limits assumed); experiment: as above
T11 construct: whole, on cells

LILRA2 on reporter cells [2] = molecular target: T12, LILRA2 on reporter cells (UniProt Q8N149 24-483); experiment: as above
T12 construct: whole, on cells

LILRA4 on reporter cells = molecular target: T13, LILRA4 on reporter cells (UniProt P59901 24-499); experiment: as above
T13 construct: whole, on cells

[3] = molecular target: T14, LILRB1 expressed on cell surface (human, UniProt Q8NHL6 24-650); experiment: as above
T14 construct: One entry is used for LILRB1 on reporter cells and on NK cells; also called LILRB1 NFAT-GFP reporter cell; LILRB1 reporter cells

LILRA6 on reporter cells = molecular target: T15, LILRA6 on reporter cells (UniProt Q6PI73 24-481); experiment: as above
T15 construct: whole, on cells

LILRB5 on reporter cells = molecular target: T16, LILRB5 on reporter cells (UniProt O75023 24-590, limits assumed); experiment: as above
T16 construct: whole, on cells

LILRA3 on reporter cells = molecular target: T17, LILRA3 on reporter cells (UniProt Q8N6C8 24-439); experiment: as above
T17 construct: whole, on cells

LILRA5 on reporter cells = molecular target: T18, LILRA5 on reporter cells (UniProt A6NI73 42-299); experiment: as above
T18 construct: whole, on cells

LILRB5 = molecular target: T19, LILRB5; experiment: ELISA
T19 construct: not the cell-surface form of MOLECULES; also called LILRB5 protein of the ELISA and Octet specificity tests; not shown: Fc or tag of the recombinant LILRB5 construct, if any

LILRA3 = molecular target: T20, LILRA3 (human, UniProt Q8N6C8); experiment: ELISA
T20 construct: not the cell-surface form of MOLECULES; also called LILRA3 protein of the ELISA and Octet specificity tests

LILRA4 = molecular target: T21, LILRA4 (human, UniProt P59901); experiment: ELISA
T21 construct: not the cell-surface form of MOLECULES; also called LILRA4 protein of the ELISA and Octet specificity tests

LILRB4 = molecular target: T22, LILRB4 (human, UniProt Q8NHJ6); experiment: ELISA
T22 construct: not the cell-surface form of MOLECULES; also called LILRB4 protein of the ELISA and Octet specificity tests

LILRA2 = molecular target: T23, LILRA2 (human, UniProt Q8N149); experiment: ELISA
T23 construct: not the cell-surface form of MOLECULES; also called LILRA2 protein of the ELISA and Octet specificity tests

LILRA1 = molecular target: T24, LILRA1 (human, UniProt O75019); experiment: ELISA
T24 construct: not the cell-surface form of MOLECULES; also called LILRA1 protein of the ELISA and Octet specificity tests

[4] = molecular target: T25, recombinant human LILRB1 protein (human, UniProt Q8NHL6 24-461); experiment: Octet RED96 (BLI), antibody on protein G biosensors, recombinant LILRB1 in solution, FIG. 2E (not Table 14)
T25 construct: ELISA and Octet methods say only 'recombinant LILRB1'; also called recombinant LILRB1; LILRB1 recombinant proteins
Protocol: Following a short baseline in kinetics buffer for 20 s, the loaded biosensors were exposed to solutions of recombinant LILRB1 in a range of concentrations (0-500 nM). After background was subtracted, data was fit to a 1:1 binding model to extract an association rate ($kon$) and dissociation rate ($koff$). The KD was calculated using the ratio $koff/kon$. […] All experiments were performed with shaking at 1,000 rpm. All raw data was processed using ForteBio Octet Data Analysis Software 9.0.

LILRA1 on reporter cells [5] = molecular target: T10, LILRA1 on reporter cells; experiment: flow cytometry on LILR reporter cells, anti-rabbit IgG PE
LILRA2 on reporter cells [6] = molecular target: T12, LILRA2 on reporter cells; experiment: as above

T12 sequence (Q8N149 24-483): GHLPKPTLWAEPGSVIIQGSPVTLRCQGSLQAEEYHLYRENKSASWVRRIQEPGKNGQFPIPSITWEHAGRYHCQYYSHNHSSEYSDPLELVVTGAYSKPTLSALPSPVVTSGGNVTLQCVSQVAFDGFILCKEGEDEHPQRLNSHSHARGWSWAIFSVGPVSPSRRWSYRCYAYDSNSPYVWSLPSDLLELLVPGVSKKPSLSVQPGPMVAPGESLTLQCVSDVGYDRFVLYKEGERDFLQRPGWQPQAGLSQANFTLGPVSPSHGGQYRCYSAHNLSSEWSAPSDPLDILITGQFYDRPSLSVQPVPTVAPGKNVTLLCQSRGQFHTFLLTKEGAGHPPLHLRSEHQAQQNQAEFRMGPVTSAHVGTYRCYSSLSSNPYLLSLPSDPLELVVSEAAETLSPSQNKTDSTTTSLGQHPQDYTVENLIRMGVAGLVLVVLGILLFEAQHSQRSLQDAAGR
T10 sequence (O75019 17-489 limits assumed): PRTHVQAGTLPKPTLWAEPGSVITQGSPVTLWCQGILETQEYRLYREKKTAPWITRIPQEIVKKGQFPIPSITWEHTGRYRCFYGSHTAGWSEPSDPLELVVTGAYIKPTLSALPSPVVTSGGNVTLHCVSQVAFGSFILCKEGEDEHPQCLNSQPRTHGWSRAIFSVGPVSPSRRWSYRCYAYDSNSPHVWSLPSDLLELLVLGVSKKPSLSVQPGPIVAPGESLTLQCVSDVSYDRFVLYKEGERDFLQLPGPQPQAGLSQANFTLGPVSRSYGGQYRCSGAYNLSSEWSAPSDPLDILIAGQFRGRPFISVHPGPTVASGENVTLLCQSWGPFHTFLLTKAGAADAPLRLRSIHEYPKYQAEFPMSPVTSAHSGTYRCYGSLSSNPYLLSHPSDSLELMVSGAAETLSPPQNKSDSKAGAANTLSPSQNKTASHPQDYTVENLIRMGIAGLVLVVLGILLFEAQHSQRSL
T18 sequence (A6NI73 42-299): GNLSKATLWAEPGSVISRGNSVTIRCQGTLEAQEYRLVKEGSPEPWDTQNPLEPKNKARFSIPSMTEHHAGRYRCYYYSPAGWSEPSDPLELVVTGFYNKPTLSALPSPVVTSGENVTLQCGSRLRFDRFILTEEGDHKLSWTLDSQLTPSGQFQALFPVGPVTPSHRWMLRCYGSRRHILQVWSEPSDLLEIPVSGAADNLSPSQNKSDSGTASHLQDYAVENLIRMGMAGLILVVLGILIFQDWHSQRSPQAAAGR
T13 sequence (P59901 24-499): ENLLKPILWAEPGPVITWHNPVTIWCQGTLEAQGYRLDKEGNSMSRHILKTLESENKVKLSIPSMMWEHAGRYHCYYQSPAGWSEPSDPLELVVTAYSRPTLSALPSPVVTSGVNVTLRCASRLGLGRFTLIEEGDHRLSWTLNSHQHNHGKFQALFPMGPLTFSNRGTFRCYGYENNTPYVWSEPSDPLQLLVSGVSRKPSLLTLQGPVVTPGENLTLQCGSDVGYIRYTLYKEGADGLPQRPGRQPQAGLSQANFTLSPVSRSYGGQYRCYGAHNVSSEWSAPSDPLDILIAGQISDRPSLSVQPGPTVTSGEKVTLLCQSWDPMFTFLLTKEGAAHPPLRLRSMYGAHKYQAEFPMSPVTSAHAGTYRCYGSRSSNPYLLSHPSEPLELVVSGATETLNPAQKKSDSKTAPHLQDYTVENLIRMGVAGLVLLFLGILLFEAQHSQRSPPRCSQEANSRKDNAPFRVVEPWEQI
T16 sequence (O75023 24-590 limits assumed): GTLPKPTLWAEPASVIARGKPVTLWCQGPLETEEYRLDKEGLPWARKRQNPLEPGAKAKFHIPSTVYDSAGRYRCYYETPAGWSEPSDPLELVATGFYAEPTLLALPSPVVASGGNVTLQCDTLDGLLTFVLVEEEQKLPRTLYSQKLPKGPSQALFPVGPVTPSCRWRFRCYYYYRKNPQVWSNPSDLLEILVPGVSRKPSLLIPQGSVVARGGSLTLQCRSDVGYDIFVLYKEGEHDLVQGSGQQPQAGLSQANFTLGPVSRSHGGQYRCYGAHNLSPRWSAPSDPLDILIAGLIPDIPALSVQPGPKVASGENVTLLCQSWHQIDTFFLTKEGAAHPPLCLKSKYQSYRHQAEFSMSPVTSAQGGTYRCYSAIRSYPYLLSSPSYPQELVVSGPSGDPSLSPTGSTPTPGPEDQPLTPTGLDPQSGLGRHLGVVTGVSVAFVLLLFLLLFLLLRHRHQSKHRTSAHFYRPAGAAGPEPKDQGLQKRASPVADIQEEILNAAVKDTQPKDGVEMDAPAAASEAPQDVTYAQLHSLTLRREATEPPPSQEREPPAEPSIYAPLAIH
T20 sequence (Q8N6C8 24-439 limits assumed): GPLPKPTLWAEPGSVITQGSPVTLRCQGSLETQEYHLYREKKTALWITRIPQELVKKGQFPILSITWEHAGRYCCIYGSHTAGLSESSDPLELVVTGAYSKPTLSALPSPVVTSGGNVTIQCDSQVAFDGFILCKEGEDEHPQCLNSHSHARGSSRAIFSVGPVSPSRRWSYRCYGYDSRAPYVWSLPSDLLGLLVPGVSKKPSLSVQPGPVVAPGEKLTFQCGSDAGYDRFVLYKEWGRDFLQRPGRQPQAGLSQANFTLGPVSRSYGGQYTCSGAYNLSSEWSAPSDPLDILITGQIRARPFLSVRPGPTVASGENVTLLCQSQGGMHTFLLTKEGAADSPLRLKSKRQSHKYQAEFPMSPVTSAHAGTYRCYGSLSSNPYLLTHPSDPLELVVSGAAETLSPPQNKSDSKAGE
T17 sequence (Q8N6C8 24-439): as the sequence (Q8N6C8 24-439 limits assumed) above
T24 sequence (O75019 17-461 limits assumed): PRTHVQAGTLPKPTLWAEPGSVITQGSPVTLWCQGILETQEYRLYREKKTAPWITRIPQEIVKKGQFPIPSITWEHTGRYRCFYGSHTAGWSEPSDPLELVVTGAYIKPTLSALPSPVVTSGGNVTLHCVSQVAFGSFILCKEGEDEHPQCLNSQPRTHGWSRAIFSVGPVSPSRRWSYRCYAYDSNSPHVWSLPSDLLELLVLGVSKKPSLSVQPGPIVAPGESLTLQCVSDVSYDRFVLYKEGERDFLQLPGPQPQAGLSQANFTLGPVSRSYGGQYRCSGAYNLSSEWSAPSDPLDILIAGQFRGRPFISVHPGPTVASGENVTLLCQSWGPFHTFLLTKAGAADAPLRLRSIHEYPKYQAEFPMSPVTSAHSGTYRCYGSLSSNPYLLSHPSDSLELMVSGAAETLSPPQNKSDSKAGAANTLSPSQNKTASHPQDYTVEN
T23 sequence (Q8N149 24-449 limits assumed): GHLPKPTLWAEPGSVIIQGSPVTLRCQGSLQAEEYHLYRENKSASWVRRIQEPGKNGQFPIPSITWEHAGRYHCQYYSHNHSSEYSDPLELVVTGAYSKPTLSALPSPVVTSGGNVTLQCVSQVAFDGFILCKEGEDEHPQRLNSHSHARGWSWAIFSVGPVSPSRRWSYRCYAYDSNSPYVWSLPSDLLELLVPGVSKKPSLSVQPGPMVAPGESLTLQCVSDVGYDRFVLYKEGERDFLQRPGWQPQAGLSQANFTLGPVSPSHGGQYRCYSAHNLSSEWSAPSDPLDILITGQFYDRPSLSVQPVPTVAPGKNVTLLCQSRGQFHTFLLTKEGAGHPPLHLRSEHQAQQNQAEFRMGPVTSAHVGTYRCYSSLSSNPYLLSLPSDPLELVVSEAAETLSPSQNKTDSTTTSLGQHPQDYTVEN
T6 sequence (Q8NHL6 116-461 limits assumed): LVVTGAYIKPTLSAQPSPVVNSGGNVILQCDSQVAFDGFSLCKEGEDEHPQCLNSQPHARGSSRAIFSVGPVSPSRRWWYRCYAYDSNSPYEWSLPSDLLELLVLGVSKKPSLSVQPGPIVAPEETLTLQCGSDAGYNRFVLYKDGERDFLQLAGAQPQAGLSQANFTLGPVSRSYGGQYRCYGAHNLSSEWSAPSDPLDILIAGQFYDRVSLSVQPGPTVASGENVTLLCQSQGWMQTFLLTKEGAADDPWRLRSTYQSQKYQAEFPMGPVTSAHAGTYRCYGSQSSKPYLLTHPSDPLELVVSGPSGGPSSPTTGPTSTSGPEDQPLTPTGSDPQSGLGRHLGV
T7 sequence (Q8NHL6 410-461 limits assumed): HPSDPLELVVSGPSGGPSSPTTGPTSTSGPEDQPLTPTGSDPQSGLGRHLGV
T25 sequence (Q8NHL6 24-461 limits assumed): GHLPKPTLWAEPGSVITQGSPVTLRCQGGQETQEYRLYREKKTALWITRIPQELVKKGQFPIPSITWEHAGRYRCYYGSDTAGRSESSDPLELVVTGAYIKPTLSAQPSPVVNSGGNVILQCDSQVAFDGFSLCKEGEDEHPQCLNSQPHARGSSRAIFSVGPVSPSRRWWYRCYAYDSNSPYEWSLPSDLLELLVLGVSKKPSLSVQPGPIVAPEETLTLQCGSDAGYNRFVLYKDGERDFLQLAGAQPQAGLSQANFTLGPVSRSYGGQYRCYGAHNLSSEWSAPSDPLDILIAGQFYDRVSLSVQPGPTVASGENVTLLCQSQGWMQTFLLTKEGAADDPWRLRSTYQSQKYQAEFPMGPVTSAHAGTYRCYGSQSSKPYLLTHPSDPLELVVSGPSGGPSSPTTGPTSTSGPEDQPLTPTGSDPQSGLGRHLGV
T5 sequence (Q8NHL6 27-115 limits assumed): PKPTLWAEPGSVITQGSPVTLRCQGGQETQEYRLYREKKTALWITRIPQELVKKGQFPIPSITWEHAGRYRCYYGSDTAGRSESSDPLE
T8 sequence (Q8NHL6 116-312 limits assumed): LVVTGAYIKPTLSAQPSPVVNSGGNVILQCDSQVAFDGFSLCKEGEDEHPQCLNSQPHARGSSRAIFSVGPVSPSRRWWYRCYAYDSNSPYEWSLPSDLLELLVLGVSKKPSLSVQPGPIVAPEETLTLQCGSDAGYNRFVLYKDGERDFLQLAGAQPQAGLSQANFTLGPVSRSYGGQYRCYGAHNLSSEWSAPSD
T4 sequence (Q8NHL6 313-461 limits assumed): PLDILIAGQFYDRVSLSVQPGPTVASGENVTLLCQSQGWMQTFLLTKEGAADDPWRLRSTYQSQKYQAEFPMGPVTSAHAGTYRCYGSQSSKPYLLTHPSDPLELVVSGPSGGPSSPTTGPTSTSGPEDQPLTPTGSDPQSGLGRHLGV

binding result (D34SR-Fc): no binding (tested: not given)
binding result (D3-Fc): no binding (tested: not given)
binding result (D2-Fc): no binding (tested: not given)
binding result (D4SR-Fc): no binding (tested: not given)
binding result (D1-Fc): no binding (tested: not given)
binding result (D234SR-Fc): no binding (tested: not given)
binding result (SR-Fc): no binding (tested: not given)
binding result (D23-Fc): no binding (tested: not given)
percent of cells in the gate (LILRB4 on reporter cells): 0.18%
percent of cells in the gate (LILRA1 on reporter cells [1]): 0.12%
percent of cells in the gate (LILRB3 on reporter cells): 0.07%
percent of cells in the gate (LILRA2 on reporter cells [2]): 0.11%
percent of cells in the gate (LILRA4 on reporter cells): 0.074%
percent of cells in the gate [3]: 99%
percent of cells in the gate (LILRA6 on reporter cells): 0.12%
percent of cells in the gate (LILRB5 on reporter cells): 0.29%
percent of cells in the gate (LILRA3 on reporter cells): 0.1%
percent of cells in the gate (LILRA5 on reporter cells): 0.1%
Kd [4]: ~0.01 nM
binding result (LILRA1 on reporter cells [5]): no binding (tested: 0.5 µg/mL)
binding result (LILRA2 on reporter cells [6]): no binding (tested: 0.5 µg/mL)
B1: B1-176 rabbit antibody (antibody, V domains shown)
VH: QSLEESEGGLVKPGGTLTLTCTASGFSFSSSYCMCWVRQAPGKGLELIACIYTDSSGATYYASWAKGRFTISKSSSTTITLQMTSLTAADTATYFCARGWDYEDPGYTDTTYFSLWGPGTLVTVSS
VL: ELDLTQTPSSVEAAVGGTVTIKCQASQTIYTNLAWYQQKPGQPPNLLIYAASTLASGVSSRFKGSGSGTEFTLTISDLECADAATYYCQSYYGSSTTGNGFGGGTEVEIK
notes: Full-length rabbit IgG, kappa; Variable genes were cloned into a rabbit IgG expression vector and expressed in Expi293F cells
binding result (LILRB5): no binding (tested: 10^3.0 ng/mL (1000 ng/mL))
binding result (LILRA3): no binding (tested: 10^3.0 ng/mL (1000 ng/mL))
binding result (LILRA4): no binding (tested: 10^3.0 ng/mL (1000 ng/mL))
binding result (LILRB4): no binding (tested: 10^3.0 ng/mL (1000 ng/mL))
binding result (LILRA2): no binding (tested: 10^3.0 ng/mL (1000 ng/mL))
binding result (LILRA1): no binding (tested: 10^3.0 ng/mL (1000 ng/mL))
